To fix the notation:
T1: human B-cell maturation antigen (BCMA) on cells (human, UniProt Q02223 1-184)
T1 construct: Recombinant on HEK293 or K562 cells, or endogenous on cell lines (H929, RPMI 8226, OPM2, MM1S, Daudi); also called hBCMA; huBCMA
T1 chain: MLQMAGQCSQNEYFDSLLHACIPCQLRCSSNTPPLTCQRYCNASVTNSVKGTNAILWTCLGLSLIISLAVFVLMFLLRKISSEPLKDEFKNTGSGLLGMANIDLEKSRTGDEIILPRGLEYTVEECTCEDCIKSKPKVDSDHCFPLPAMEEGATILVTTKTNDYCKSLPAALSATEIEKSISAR

B1: BCMA-32 scFv (scFv)
scFv: QVQLVESGGGLVKPGGSLRLSCAASGFTFSDYYMSWIRQAPGKGLEWVSYISSSGSTIYYADSVKGRFTISRDNAKNSLYLQMNSLRAEDTAVYYCAKVDGPPSFDIWGQGTMVTVSSGGGGSGGGGSGGGGSQTVVTQPPSVSVAPGQTARITCGGNNIGSKGVHWYRQRPGQAPEVVIYDDSDRPSGVPDRFSGSNSGNTATLTVRGVEAGDEADYYCQVWDSSSDHWVFGGGTKLTVL
B2: BCMA-34 scFv (scFv)
scFv: TGQLVQSGGGLVQPGRSLRLSCAASGFTFDDYAMHWVRQAPGKGLEWVSGISWNSGSIGYADSVKGRFTISRDNAKNSLYLQMNSLRAEDTAVYYCARDLGPDYDPDAFDIWGQGTMVTVSSGGGGSGGGGSGGGGSEIVMTQSPATLSLSPGDRATLSCRASQSISNYLAWYQQKPGQAPRLLIYDASNRATGIPARFSGSGSGTDFTLTISSLEPEDFAVYYCQQRSNWPPYTFGQGTKLDIK
B3: BCMA-41 scFv (scFv)
scFv: QVQLVQSGGGLVKPGGSLRLSCAASGFTFSDYYMSWIRQAPGKGLEWVSYISSSGNTIYYADSVKGRFTISRDNAKNSLYLQMNSLRAEDTAVYYCAKVDGDYVDDYWGQGTLVTVSSGGGGSGGGGSGGGGSQPVLTQPPSVSGTPGQRVTIPCSGSSSNIGGNSVDWFQEVPGTAPKLLIYANDRRPSGVPDRFSGTKSGTSASLAIRGLQSDDDAHYYCESWDDALNGHVFGGGTKLTVL
B4: BCMA-37 scFv (scFv)
scFv: EVQLVQSGGGLVKPGGSLRLSCAASGFTFSDYYMSWIRQAPGKGLEWVSYISSSGSTIYYADSVKGRFTISRDNAKSSLYLQMNSLRAEDTAVYYCARVDGDYVDDYWGQGTLVTVSSGGGGSGGGGSGGGGSQLVLTQEPSLTVSPGGTVTLTCGSSTGAVTNGHSPYWFQQKPGQAPRTLIYDTTNRHSWTPARFSGSLLGGKAALTLSGAQPEDEAEYYCSLSHAGDRVFFGGGTKLTVL
B5: BCMA-35 scFv (scFv)
scFv: EVQLVQSGGGLVKPGGSLRLSCAASGFTFSDYYMSWIRQAPGKGLEWVSYISSSGSTIYYADSVKGRFTISRDNAKNSLYLQMNSLRAEDTAVYYCARVDGDYDDYWGQGTLVTVSSGGGGSGGGGSGGGGSNFMLTQPPSVSVAPGQTARITCGANNIGSKSVHWYQQKPGQAPMLVVYDDDDRPSGIPERFSGSNSGNTATLTISGVEAGDEADYFCHLWDRSRDHYVFGTGTKLDIK
B6: BCMA-38 scFv (scFv)
scFv: QVQLVQSGGGLVKPGGSLRLSCAASGFTFSDYYMSWIRQAPGKGLEWVSYISSSGSTIYYADSVKGRFTISRDNAKNSLYLQMNSLRAEDTAVYYCARVDGDYVDDYWGQGTLVTVSSGGGGSGGGGSGGGGSQAVLTQEPSLTVSPGGTVTLTCGSSTGAVTNGHSPYWFQQKPGQAPRTLIYDTNNRHSWTPARFSGSLLGGKAALTLSGAQPEDEADYFCLLSYSDARLAFGGGTKLTVL
B7: BCMA-36 scFv (scFv)
scFv: QVQLVQSGGGLVKPGGSLRLSCAASGFTFSDYYMSWIRQAPGKGLEWVSYISSSGSTIYYADSVKGRFTISRDNAKNSLYLQMNSLRAEDTAVYYCARVDGDYVDDYWGQGTLVTVSSGGGGSGGGGSGGGGSQSVLTQEPSLTVSPGETVTLTCGSSTGPVTSAHSPSWFQKKPGQAPTTLIYETTNRHSWTPARFSGSLLGGKAALTLSGAQPEDEADYYCLLSSGDARMVFGGGTKLTVL
B8: BCMA-24 scFv (scFv)
scFv: EVQLVQSGGGLVKPGGSLRLSCAASGFTFSDYYMSWIRQAPGKGLEWVSGISWNSGSIGYADSVKGRFTISRDNAKNSLYLQMNSLRAEDTAVYYCARDLGPPYGDDAFDIWGQGTMVTVSSGGGGSGGGGSGGGGSDIVMTQSPDSLAVSLGERATINCKSSQSVLYSSNNKNYLAWYQQKPGQPPKLLIYWGSTRESGVPDRFSGSGSGTDFTLTISSLQAEDVAIYHCQQYISLPWTFGQGTKVEIK

This assay concerns the target T1, human B-cell maturation antigen (BCMA) …. Briefly: flow cytometry on BCMA-expressing HEK293 cells vs control cells, crude lysate or bacterial supernatant; clone listed in Table E2. Here is the method:
Specific binding of resulting scFv clones to BCMA-expressing HEK293 cells, as compared to control cells not expressing BCMA, was assessed by flow cytometry either with in vitro translated crude cell lysate or with bacterially-produced supernatant.
(In general: Flow cytometry measures light scatter and fluorescence of single cells or particles in a stream.)
In the case of B1, the binding result is reported as “binds”.
The same measure for B2: “binds”; for B3: “binds”.
Turning to B4, the binding result is “binds”.
For B5 the value was “binds”.
B6: the binding result was “binds”.
The same measure for B7: “binds”; for B8: “binds”.
